The record followed here is the supplement of paper PMC12764529.

± gives the half width of the 95% confidence interval.

Data set [1] can be described thus: folding stability dG unfold from trypsin proteolysis; higher = more stable. In outline:
(§1)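 Digests were run with trypsin and chymotrypsin at 11 concentrations in threefold dilutions, plus a no-protease condition, on designed mini-proteins in a PA-tagged cDNA display construct. The mini-proteins were under 80 residues, had no cysteine, and were kept only when AlphaFold2 dimer inter-PAE was above 15. After sequencing, Bayesian fitting of the counts gave K50, from which unfolding free energy was derived against a sequence-predicted unfolded-state K50 and a shared folded-state K50, per protease or combined.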

The nature of data set [2]: folding stability dG unfold (combined trypsin and chymotrypsin); higher = more stable. In outline: as §1
Data set [3] can be described thus: folding stability dG unfold from chymotrypsin proteolysis; higher = more stable. A digest of the protocol: as §1

For the sequence “SAGGSAGGSAGGWIRSPGGWWVNIDIEIFEIPIDKNMSPEMANKFKRVRIIVIEITVVKRSAGGSAGGSAGG [r7_324_TrROS]”, the “folding stability dG unfold” value in data set [1] was 3.31 ± 0.16 kcal/mol; in data set [2], 3.84 ± 0.25 kcal/mol; in data set [3] it was 4.7 ± 0.15 kcal/mol.
The like results for “SAGGSAGGSAGGWRTVWIRMPPGQSPEQAVDEIKDHFPPGEPIEVEYHPNDGFFRVKIPSAGGSAGGSAGGS [r10_163_TrROS]” were, in that order, 0.654 ± 0.08 kcal/mol, 0.668 ± 0.077 kcal/mol and 0.546 ± 0.22 kcal/mol.
The matching figures for “SAGGSAGGSAGGWYVQIKFPNNPIYISAEEIRDNPEVLKELEDEGYPIKNIEVMKPGEGSAGGSAGGSAGGS [r10_396_TrROS]”: 0.526 ± 0.082 kcal/mol, 0.241 ± 0.14 kcal/mol and -0.5 ± 0.29 kcal/mol.
The matching figures for “SAGGSAGGSAGGYSAIIIFPTEFDNKLYYAAVELESPSEELHEGDIKSVILAPLNTPILSAGGSAGGSAGGS [r10_730_TrMRF]”: 1.93 ± 0.096 kcal/mol, 1.64 ± 0.046 kcal/mol and 1.41 ± 0.043 kcal/mol.
In the case of “SAGGSAGGSAGIEAVVKELEELGYEVEATPEPDGSVVIEVTLKNGEKLTVRVGPFGGVEASAGGSAGGSAGG [r17_503_TrMRF]”, the results for the “folding stability dG unfold” value in data set [1], in data set [2] and in data set [3] were 2.21 ± 0.14 kcal/mol, 2.24 ± 0.13 kcal/mol and 2.2 ± 0.071 kcal/mol, respectively.
The matching figures for “SAGGSAGGSAGIEKTKDGVYKITIYNPSTGKKTEIYVPSSAPYVAGPVVLELVKNKAIIESAGGSAGGSAGG [r11_538_TrMRF]”: -0.296 ± 0.074 kcal/mol, 0.47 ± 0.055 kcal/mol and 0.802 ± 0.11 kcal/mol.
The like results for “SAGGSAGGSAGIIVRLPDGGWLIIDITMTRKYPPPDGKPKKVEFEFTIIISPKSGKIRIVSAGGSAGGSAGG [r11_271_TrROS]” were, in that order, 2.94 ± 0.2 kcal/mol, 3.01 ± 0.26 kcal/mol and 3.21 ± 0.15 kcal/mol.
For “SAGGSAGGSAGIKTESLEEALEYVKKTFPPGTKVEIVVEGDGKPIKITVTVLENGEIKVESAGGSAGGSAGG [r17_69_TrMRF]”, the entries for the “folding stability dG unfold” value in data set [1], in data set [2] and in data set [3] were 3.97 ± 0.16 kcal/mol, 3.58 ± 0.12 kcal/mol and 3.24 ± 0.036 kcal/mol, respectively.
As to “SAGGSAGGSAGIRIKAFPGWKIVDIEPNPPGTIIIRYPNWVFQIRIRPNGEIEIRIVPLDSAGGSAGGSAGG [r11_612_TrROS]”, the “folding stability dG unfold” value amounted to 3.09 ± 0.093 kcal/mol in data set [1], 3.49 ± 0.083 kcal/mol in data set [2] and 3.64 ± 0.055 kcal/mol in data set [3].
The matching figures for “SAGGSAGGSAGIRIYWDPENGWYRVKYPDPDGKPVDEHPMPPDQLPEFLQAGNIEVEPWPSAGGSAGGSAGG [r11_159_TrROS]”: 0.759 ± 0.035 kcal/mol, 1 ± 0.095 kcal/mol and 1.27 ± 0.081 kcal/mol.
The matching figures for “SAGGSAGGSAGITIRDPDNGMWIQIEKTPDMFKVEIEMPGNGKKVEFTFPPGQSLDDLKISAGGSAGGSAGG [r11_772_TrROS]”: 0.508 ± 0.037 kcal/mol, 0.571 ± 0.12 kcal/mol and 0.473 ± 0.085 kcal/mol.
The matching figures for “SAGGSAGGSAGKAVFIRELENGAIVLAVPFPDSVRLRVFPLTPGGEVESVEEFTLAPEELSAGGSAGGSAGG [r11_88_TrMRF]”: -0.0256 ± 0.16 kcal/mol, 0.591 ± 0.08 kcal/mol and 0.842 ± 0.088 kcal/mol.
Consider “SAGGSAGGSAGKEIKVETEENPNGQHPVKIEIYDGGNPRPIEFPVDSPEDAEDWAKELLKSAGGSAGGSAGG [r11_560_TrROS]”, for which the “folding stability dG unfold” value is -0.595 ± 0.074 kcal/mol in data set [1], -0.0496 ± 0.079 kcal/mol in data set [2] and 0.148 ± 0.031 kcal/mol in data set [3].
The matching figures for “SAGGSAGGSAGKEKEIIIKVKVTKDKNGKYKIDIEELKKLFPNVKITEIKDNYIKIKVKKSAGGSAGGSAGG [r11_771_TrROS_Hall]”: 1.63 ± 0.1 kcal/mol, 1.75 ± 0.31 kcal/mol and 2.11 ± 0.13 kcal/mol.
The like results for “SAGGSAGGSAGKHTFNIKDIEIKEVVPSNNYYVVRIEMTFPDGKEHKFTFYFPPGDPITLSAGGSAGGSAGG [r11_211_TrROS]” were, in that order, 1.97 ± 0.055 kcal/mol, 2.53 ± 0.14 kcal/mol and 2.87 ± 0.085 kcal/mol.
The like results for “SAGGSAGGSAGKIEVTYNKENNTFTVKIVNKKTKKVITIKVKAKSKEDALKKVKELLEKLSAGGSAGGSAGG [r17_386_TrROS_Hall]” were, in that order, 2.79 ± 0.17 kcal/mol, 3.11 ± 0.19 kcal/mol and 3.32 ± 0.078 kcal/mol.
Consider “SAGGSAGGSAGKIIEELKKKGYKVEVIKDKKTKKYYVKITVTDKKGNKKTITIPLKDIKPSAGGSAGGSAGG [r17_311_TrROS_Hall]”, for which the “folding stability dG unfold” value worked out at 2.8 ± 0.23 kcal/mol in data set [1], 3.71 ± 0.35 kcal/mol in data set [2] and 4 ± 0.21 kcal/mol in data set [3].
The like results for “SAGGSAGGSAGKIIFERDEDGYLRAIVYDPKTKEVYVRRFKVKDGKITEVETERINLKDLSAGGSAGGSAGG [r11_167_TrROS_Hall]” were, in that order, 2.06 ± 0.049 kcal/mol, 2.21 ± 0.1 kcal/mol and 2.37 ± 0.078 kcal/mol.
